Assay results from patent publication US20200399314A1 (MEDIKINE, published 2020).
Bridge positions count the residues as written; N and C are the ends. Ends that are not written are not given here.

T1: human IL-2Rα subunit (human, UniProt P01589 22-213, limits assumed)
T1 construct: also called CD25
T1 sequence (looked up): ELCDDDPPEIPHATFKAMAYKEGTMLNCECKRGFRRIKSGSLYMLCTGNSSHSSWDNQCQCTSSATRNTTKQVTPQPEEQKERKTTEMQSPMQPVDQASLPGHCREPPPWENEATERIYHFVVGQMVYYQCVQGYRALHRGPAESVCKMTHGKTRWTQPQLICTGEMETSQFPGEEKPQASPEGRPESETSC


Molecular target: T1, human IL-2Rα subunit

IC50, < 100 µM:
RCTLRFDAQTGWECN [SEQ ID NO 202]
SCMDLKGSVGWVCD [SEQ ID NO 229]
DCLDLRGTVGMVCQ [SEQ ID NO 227]
HGCTLTKPGAEWVCSF [SEQ ID NO 218]
RCRLQKAGGNTWECI [SEQ ID NO 201]
ATCHLLAPGVDNTCIF [SEQ ID NO 217]
TCTVHRIGLAEWECV (disulfide 2-14 (inferred)) [SEQ ID NO 204]
RDCFILEPGTSVYCDL [SEQ ID NO 221]
FLPWPVYFSQVLGGG [SEQ ID NO 240]
NCRVRHLPYPFWSCL [SEQ ID NO 200]
VRCFMSEPGRVSYCTA [SEQ ID NO 209]
PSCRLWNPGFGWECIF [SEQ ID NO 188]
VYCRREKPGGEMHCRS [SEQ ID NO 213]
RRFCLRSEPTACWIV [SEQ ID NO 59]
RRFCLRSEPTACWYV [SEQ ID NO 68]
IRFCLRSEPTACWIV [SEQ ID NO 54]
MRFCLRSEPTACWTV [SEQ ID NO 61]
KRFCLRSEPTACWTV [SEQ ID NO 64]
IRFCLRSEPTACWIV [SEQ ID NO 243]
RRFCLRSEPMACWTV (disulfide 4-12 (inferred)) [SEQ ID NO 65]
RRFCLRSDPTACWIV [SEQ ID NO 63]
RRFCLRSEPTACWDV [SEQ ID NO 62]
RRFCLRSEPTACWTV (disulfide 4-12 (inferred)) [SEQ ID NO 66]
THCLVQWPGPVVACRS [SEQ ID NO 194]
SSCTLFNPGTGWTCVF [SEQ ID NO 192]
YVMCSAFGCKSI [SEQ ID NO 23]
NTCKLFRSGNIWQCIF [SEQ ID NO 187]
GCSLMWQDGWWVCI [SEQ ID NO 246]
VRCRLARPGLTWECLS [SEQ ID NO 210]
SACTPNWTGRWWECVF (disulfide 3-14 (inferred)) [SEQ ID NO 190]
EWECRFLPGRRGCSLF [SEQ ID NO 247]
IRCRYEKQSGICLF [SEQ ID NO 244]
TDCQETWPGDRPWCHI [SEQ ID NO 222]
VKCYRNSPGVEAYCVG (disulfide 3-14 (inferred)) [SEQ ID NO 224]
VTCYRAVPGVEAYCFS [SEQ ID NO 212]
VVLCTPKGCRSA [SEQ ID NO 22]
GGCSLVWADSWVCIF [SEQ ID NO 245]
QLCPWSDPGSWGPCPL [SEQ ID NO 219]
ACWRSWRYPTRTFCS [SEQ ID NO 198]
GCQLVWQDDSYMCFY [SEQ ID NO 234]
YVMCSAFGCKSI [SEQ ID NO 241]
YCHDFKGTVGTLCI (disulfide 2-13 (inferred)) [SEQ ID NO 233]
TCESLARMYNENCI [SEQ ID NO 231]
HVICSVNGGCRG [SEQ ID NO 242]
VKCFMSTPGQIAYCTT [SEQ ID NO 223]
WCWEPHDQYYVRCP [SEQ ID NO 232]
SKCHLIVSGKFHECVF [SEQ ID NO 191]
KCRLRQMSRGGWECL [SEQ ID NO 199]
WCIGQPLFRQGSCK [SEQ ID NO 237]
TCESLAKMYEVECN [SEQ ID NO 230]
LVFCGKNGCHSG [SEQ ID NO 21]
RDCAGMEPGTSVFCDN [SEQ ID NO 220]
KVICGWDGCR [SEQ ID NO 20]
PCQRLAEYYSQQCL (disulfide 2-13 (inferred)) [SEQ ID NO 228]
VKCKLVNPGSGWACHF (disulfide 3-14 (inferred)) [SEQ ID NO 208]
FVLCGLQGCRGS [SEQ ID NO 19]
TRCRLLKLGSLWECFG [SEQ ID NO 195]
VRCRVLYPGQMAVCVS [SEQ ID NO 211]
STCRMGNPGGVWGCYF (disulfide 3-14 (inferred)) [SEQ ID NO 193]
KGCTLQNPGSGWVCLF [SEQ ID NO 248]
WDQFQLGWEAGVAA [SEQ ID NO 239]
WCVGQPLYRLGSCK (disulfide 2-13 (inferred)) [SEQ ID NO 238]
TCRLKRSGPNSWECI [SEQ ID NO 203]
QSCTLQRLGHLYQCWF [SEQ ID NO 189]
